The values below come from paper PMC4741643.

In this assay the target is suppressor of MEK null (sMEK1), full-length human, pGilda fusion (human) (UniProt Q6IN85). The experiment in a line: two-hybrid; EGY48 yeast cells; pGilda-sMEK1 as bait, pJG4-5 fusions as prey; growth on medium lacking leucine, blue colonies on X-gal plates with 2% galactose, β-galactosidase activity with ONPG.
UniProt Q6IN85, sequence (Q6IN85 whole entry, the tested form may be a part): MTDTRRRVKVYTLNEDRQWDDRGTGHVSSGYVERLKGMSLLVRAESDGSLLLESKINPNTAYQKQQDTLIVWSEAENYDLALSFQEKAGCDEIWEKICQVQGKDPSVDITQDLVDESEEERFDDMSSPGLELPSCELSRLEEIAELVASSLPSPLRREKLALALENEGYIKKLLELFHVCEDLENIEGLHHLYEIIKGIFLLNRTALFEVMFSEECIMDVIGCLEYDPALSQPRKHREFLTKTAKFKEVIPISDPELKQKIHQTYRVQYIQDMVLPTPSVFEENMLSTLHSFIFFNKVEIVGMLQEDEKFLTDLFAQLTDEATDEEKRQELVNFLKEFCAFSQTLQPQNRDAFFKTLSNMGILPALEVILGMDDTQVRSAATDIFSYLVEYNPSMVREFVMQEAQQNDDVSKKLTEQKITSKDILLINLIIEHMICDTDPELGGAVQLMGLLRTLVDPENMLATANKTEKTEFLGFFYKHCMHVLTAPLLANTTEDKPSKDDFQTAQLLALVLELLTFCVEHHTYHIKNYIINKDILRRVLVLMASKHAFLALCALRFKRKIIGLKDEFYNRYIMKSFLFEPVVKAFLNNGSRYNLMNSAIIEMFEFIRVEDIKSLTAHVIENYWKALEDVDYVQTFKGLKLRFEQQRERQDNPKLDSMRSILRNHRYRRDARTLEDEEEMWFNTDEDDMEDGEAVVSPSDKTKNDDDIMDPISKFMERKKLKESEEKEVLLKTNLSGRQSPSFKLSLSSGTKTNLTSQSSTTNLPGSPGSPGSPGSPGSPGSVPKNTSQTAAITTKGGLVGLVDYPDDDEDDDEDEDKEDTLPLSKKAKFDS

In the case of “vascular endothelial growth factor receptor 2 (VEGFR-2), full-length human, yeast two-hybrid construct (from UniProt P35968 1-1356)”, the β-galactosidase activity turned out to be 92.3 unit.
